“And” between values parts separate entries of the source, which are not always exact repeats. Equal values may be shown once. Read-outs that look alike come from different tables or passages of the source.
B1: protein S (purified, free form) (protein, UniProt P07225 42-676, looked up)
chain: ANSLLEETKQGNLERECIEELCNKEEAREVFENDPETDYFYPKYLVCLRSFQTGLFTAARQSTNAYPDLRSCVNAIPDQCSPLPCNEDGYMSCKDGKASFTCTCKPGWQGEKCEFDINECKDPSNINGGCSQICDNTPGSYHCSCKNGFVMLSNKKDCKDVDECSLKPSICGTAVCKNIPGDFECECPEGYRYNLKSKSCEDIDECSENMCAQLCVNYPGGYTCYCDGKKGFKLAQDQKSCEVVSVCLPLNLDTKYELLYLAEQFAGVVLYLKFRLPEISRFSAEFDFRTYDSEGVILYAESIDHSAWLLIALRGGKIEVQLKNEHTSKITTGGDVINNGLWNMVSVEELEHSISIKIAKEAVMDINKPGPLFKPENGLLETKVYFAGFPRKVESELIKPINPRLDGCIRSWNLMKQGASGIKEIIQEKQNKHCLVTVEKGSYYPGSGIAQFHIDYNNVSSAEGWHVNVTLNIRPSTGTGVMLALVSGNNTVPFAVSLVDSTSEKSQDILLSVENTVIYRIQALSLCSDQQSHLEFRVNRNNLELSTPLKIETISHEDLQRQLAVLDKAMKAKVATYLGGLPDVPFSATPVNAFYNGCMEVNINGVQLDLDEAISKHNDIRAHSCPSVWKKTKNS
modifications: contains the modified amino acid gamma-carboxy glutamic acid (positions not given)

Assays:
Assay in all cases: cell-based or functional assay
[1] = target: protein S (purified, free form) (UniProt P07225)
[2] = target: protein S (purified, free form) (UniProt P07225); remark: listed apart in the source
[3] = target: tissue factor pathway inhibitor alpha (TFPIα) (UniProt P10646)
Chain of UniProt P10646 (P10646 29-304 limits assumed): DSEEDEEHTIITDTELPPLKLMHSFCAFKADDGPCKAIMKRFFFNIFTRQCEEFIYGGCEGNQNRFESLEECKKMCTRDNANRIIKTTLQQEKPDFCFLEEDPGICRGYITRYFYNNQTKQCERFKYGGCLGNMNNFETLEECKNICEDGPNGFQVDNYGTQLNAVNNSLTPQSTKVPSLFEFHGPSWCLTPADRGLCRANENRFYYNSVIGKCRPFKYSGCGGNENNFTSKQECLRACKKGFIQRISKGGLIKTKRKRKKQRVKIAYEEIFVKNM

| Molecule | loss of the TFPIα-cofactor activity of protein S in the FXa inhibition assay (S2765 absorbance; 5 nM protein S, 2 nM FV-Short, 0.25 nM TFPIα, 0.3 nM FXa) [1] | loss of the TFPIα-cofactor activity of protein S in the FXa inhibition assay (S2765 absorbance; 5 nM protein S, 2 nM FV-Short, 0.25 nM TFPIα, 0.3 nM FXa) [2] | inhibition of FXa by TFPIα (S2765 absorbance) with phospholipid vesicles and 2 nM FV-Short, protein S titrated [3] | inhibition of FXa by TFPIα (S2765 absorbance) without added FV-Short [3] |
| --- | --- | --- | --- | --- |
| C4b-binding protein (C4BP) without bound protein S (from UniProt P04003 49-597; P20851 18-252) | 3.13 nM | 6.25 nM |  |  |
| B1 |  |  | 1.25 nM and 5 nM | > 10 nM |

Source: patent US20210318338A1
